Source: PMC11480844

B1: H2-Kb / B6 (parent)
chain 1: GDSVTQTEGLVTVTEGLPVKLNCTYQTTYLTIAFFWYVQYLNEAPQVLLKSSTDNKRTEHQGFHATLHKSSSSFHLQKSSAQLSDSALYYCALSLGNAGAKLTFGGGTRLTVRP
chain 2: EAAVTQSPRNKVTVTGGNVTLSCRQTNSHNYMYWYRQDTGHGLRLIHYSYGAGNLQIGDVPDGYKATRTTQEDFFLLLELASPSQTSLYFCASSDGMISSSYEQYFGPGTRLTVL
chain 3: not shown
chain 4: IQKTPQIQVYSRHPPENGKPNILNCYVTQFHPPHIEIQMLKNGKKIPKVEMSDMSFSKDWSFYILAHTEFTPTETDTYACRVKHDSMAEPKTVYWDRDM
chain 5: SIINFEKL
B2: H2-Kb / B5 (parent)
chain 1: TQTVSQSDAHVTVFEGDSVELRCNYSYGGSIYLSWYIQHHGHGLQFLLKYYSGNPVVQGVNGFEAEFSKSDSSFHLRKASVHWSDSAVYFCAVSLYQGGRALIFGTGTTVSVSP
chain 2: EAGVTQSPRYAVLQEGQAVSFWCDPISGHDTLYWYQQPRDQGPQLLVYFRDEAVIDNSQLPSDRFSAVRPKGTNSTLKIQSAKQGDTATYLCASSFAGGARAEQFFGPGTRLTVL
chain 3: not shown
chain 4: B1 chain 4
chain 5: SIINFEKL
B3: H2-Kb / F5 (parent)
chain 1: GDSVTQTEGLVTLTEGLPVMLNCTYQSTYSPFLFWYVQHLNEAPKLLLKSFTDNKRPEHQGFHATLHKSSSSFHLQKSSAQLSDSALYYCALSPSNMGYKLTFGTGTSLLVDP
chain 2: EAAVTQSPRNKVAVTGGKVTLSCNQTNNHNNMYWYRQDTGHGLRLIHYSYGAGSTEKGDIPDGYKASRPSQENFSLILELATPSQTSVYFCASGDASEQYFGPGTRLTVL
chain 3: not shown
chain 4: B1 chain 4
chain 5: SIINFEKL

Variants of: B1
Test: % of reporter cells activated (NFAT-GFP), raw
Design: unit not given here
Conditions: with B6
Further: test concentration or dose not given here.

Ratio to parent of substitutions, site by site:
chain 5 I2: S 0.987 | H 1.15 | P 1.16 | E 0.879 | M 0.98 | T 1.23 | F 1.01 | W 0.926 | R 0.765 | G 0.966
chain 5 N4: V 0.893 | T 1.1 | H 0.973 | R 1 | F 1.87 | L 2.7
chain 5 I3: M 1.13 | Q 1.06 | D 1.01 | N 0.913 | Y 1.23 | C 1.07 | K 0.98 | R 0.678 | E 1.03 | V 0.886
chain 5 E6: T 0.859 | A 1.21 | M 0.946 | R 0.711 | Y 0.685 | Q 0.872 | S 0.852 | K 0.872 | G 0.664 | N 1.07
chain 5 K7: F 0.812 | Y 0.738 | M 0.765 | P 0.758 | H 0.926 | L 0.785 | R 0.477 | I 0.899 | G 0.913 | A 0.832
chain 5 S1: Q 0.926 | M 0.973 | E 1.12 | W 1.01 | R 0.611 | T 1.07
chain 5 L8: A 0.53 | Q 0.738 | M 0.718 | V 0.403 | K 0.819 | P 0.671 | E 0.329 | C 0.725 | D 0.456
chain 5 F5: H 1.28 | P 0.973 | T 0.993 | A 1.15 | C 1.47 | M 1 | S 0.98 | Y 1.28 | K 1.28 | G 1.17 | D 1.25 | W 1.15

Variants of: B2
Test: % of reporter cells activated (NFAT-GFP), raw
Conditions: with B5; scale: % of reporter cells activated

Ratio to parent of substitutions, site by site:
chain 5 L8: G 0.972 | E 1.42 | A 1.54 | R 1.78 | N 1.49 | V 1.35 | D 1.33 | F 1.53 | M 1.61 | H 1.21 | W 1.47 | C 1.4 | I 1.06 | K 0.903
chain 5 E6: H 1.03 | S 1.03 | Y 1.44 | I 1.36 | G 1.01 | T 1.17 | L 1.4 | A 0.708 | P 1.11 | C 1.38 | W 1.12 | K 1.17 | V 0.75
chain 5 F5: E 0.472 | S 0.806 | K 1.06 | A 0.611 | P 1.04 | Y 1.29 | I 0.597 | W 0.694 | H 0.556 | V 3.75 | C 1.92 | M 1.01 | L 0.958 | N 1.36 | G 0.569
chain 5 K7: L 1.28 | E 1.31 | P 0.889 | S 0.944 | F 0.806 | G 0.917 | Y 1.38 | V 1.19 | T 1.17 | I 1.4 | A 1.19 | W 1.19 | H 1.29 | R 0.833
chain 5 I3: H 1.01 | Y 0.917 | M 0.972 | E 1.17 | L 0.847 | V 1.1 | W 7.01 | C 0.792 | N 0.917 | S 1.54 | R 1.03 | T 0.764 | K 1.11 | F 0.958 | P 1.08 | A 1.01 | D 1
chain 5 N4: I 0.5 | H 0.556 | L 1.08 | A 0.931 | F 8.53 | P 0.917 | D 1.08 | K 1.07 | Y 1
chain 5 I2: Y 1.01 | Q 1.11 | F 0.875 | L 1.17 | R 0.819 | C 0.694 | M 1.58 | S 0.694 | D 1.18 | A 0.736 | W 1.51 | H 0.792 | K 0.889 | V 0.375 | E 1.1
chain 5 S1: C 0.875 | M 1.22 | T 0.986 | R 1.14 | G 0.889 | N 1.24 | A 1.43 | L 0.764 | P 0.917 | F 1.22 | Q 1.08 | W 1.65

Variants of: B3
Test: % of reporter cells activated (NFAT-GFP), raw
Conditions: with F5; scale: % of reporter cells activated

Ratio to parent, by site and new letter:
chain 5 E6: A 0.318 | V 0.232 | H 0.27 | F 0.292 | D 0.371 | Q 0.288 | K 0.337 | S 0.303 | M 0.221 | T 0.36 | W 0.318 | R 0.453 | Y 0.296 | G 0.281 | C 0.303 | L 0.341 | I 0.21 | N 0.296 | P 0.21
chain 5 K7: G 0.318 | S 0.775 | I 2.55 | V 2.14 | H 0.61 | F 2.64 | E 0.184 | P 0.322 | M 5.55 | C 0.588 | Y 0.423 | A 0.903 | R 2.89 | L 3.69 | D 0.341 | W 0.498 | Q 1.38 | T 1.72 | N 0.386
chain 5 N4: M 0.431 | E 0.21 | K 0.184 | Q 0.15 | C 0.232 | V 0.322 | S 0.303 | H 0.36 | Y 0.307 | T 0.337 | W 0.438 | D 0.21 | A 0.262 | P 0.36 | G 0.24 | I 0.315 | L 0.401 | R 0.191 | F 0.509
chain 5 I2: V 1.23 | P 0.419 | S 0.483 | M 1.58 | W 1.57 | L 3.22 | R 0.273 | H 0.378 | K 0.397 | G 0.989 | C 0.779 | F 0.577 | Y 0.393 | T 1.03 | Q 0.472 | A 0.603 | E 0.558 | N 0.903 | D 0.652
chain 5 L8: H 1.55 | D 1.91 | W 0.292 | Y 0.742 | P 0.352 | S 1.39 | R 0.345 | G 0.352 | I 0.858 | V 0.521 | A 0.195 | E 0.285 | M 0.427 | Q 0.288 | T 0.453 | C 2.82 | N 0.21 | K 0.633 | F 0.247
chain 5 F5: E 0.315 | R 0.318 | P 4.99 | S 1.09 | N 0.655 | M 1.51 | H 0.659 | V 1.15 | Q 1.76 | D 0.273 | L 0.79 | I 0.607 | G 0.296 | Y 0.502 | T 1.2 | A 0.921 | K 0.247 | C 1.48 | W 1.55
chain 5 S1: H 0.337 | C 0.296 | L 0.375 | W 0.292 | A 0.521 | N 0.161 | Q 0.554 | M 0.281 | V 0.307 | G 0.629 | F 0.262 | I 0.262 | D 0.288 | R 0.225 | E 0.33 | P 0.315 | Y 0.337 | K 0.326 | T 0.573
chain 5 I3: M 0.255 | H 0.311 | R 0.161 | T 0.356 | A 0.386 | V 0.487 | F 0.3 | E 0.517 | W 0.243 | Y 0.3 | C 0.419 | P 0.427 | K 0.345 | G 0.292 | L 0.547 | N 0.251 | Q 0.464 | S 0.348 | D 0.255
